Test results as given in patent US20130123340A1.

Molecular target: GFP-MG53 (mouse) (UniProt Q1XH17)
Assay: cell-based or functional assay

UniProt Q1XH17, sequence (Q1XH17 whole entry): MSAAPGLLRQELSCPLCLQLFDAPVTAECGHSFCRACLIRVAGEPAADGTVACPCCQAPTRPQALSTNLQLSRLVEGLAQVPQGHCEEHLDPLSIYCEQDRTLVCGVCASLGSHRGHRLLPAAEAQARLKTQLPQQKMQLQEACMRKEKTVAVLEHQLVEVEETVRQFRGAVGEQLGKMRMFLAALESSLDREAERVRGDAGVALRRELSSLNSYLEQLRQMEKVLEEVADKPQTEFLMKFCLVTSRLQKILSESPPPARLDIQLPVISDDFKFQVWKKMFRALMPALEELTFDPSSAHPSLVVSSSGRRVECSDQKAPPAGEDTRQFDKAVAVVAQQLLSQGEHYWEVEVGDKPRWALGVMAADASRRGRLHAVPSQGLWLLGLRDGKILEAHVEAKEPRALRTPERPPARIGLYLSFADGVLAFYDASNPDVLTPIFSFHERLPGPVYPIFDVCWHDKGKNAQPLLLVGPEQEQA

Q: For “caveolin-3 overexpressed from pcDNA-Cav-3”, which reduction in the appearance of filapodia-like structures in C2C12 myoblasts transfected with caveolin-3 and GFP-MG53 (about 10:1) is on record?
A: 82%
